From publication PMC7135997, “Cardiac myosin regulatory light chain kinase modulates cardiac contractility by phosphorylating both myosin regulatory light chain and troponin I” (The Journal of Biological Chemistry, 2020)

Tests used:
rat cardiac troponin C = rat cardiac troponin C (rat, UniProt Q4PP99 1-161); assay: SEC-MALS; complex reconstituted from the three separately purified subunits mixed 1:1:1 in 6 mol/liter urea, dialysed, purified on Resource-Q; Superdex 200 5/150 GL in 50 mmol/liter Tris-HCl (pH 7.4), 5 mM MgCl2, 1 mmol/liter CaCl2, 100 mM NaCl, 100 mmol/liter tris(2-carboxyethyl)phosphine; also characterized by HPLC and ESI-MS; details: both partners purified
rat cardiac troponin I = biological target: T1, rat cardiac troponin I (rat, UniProt P23693 1-211); assay: as above; details: both partners purified
T1 construct: cardiac troponin I, rat, cloned from a rat heart cDNA library into pET3a, codon-optimized; No tag is named; unphosphorylated recombinant protein; also called rcTnI; rat cTnI; source: E. coli BL21(DE3)-RIPL, inclusion bodies, purified (CM Sepharose in 6 mol/liter urea)
T1 sequence (P23693 whole entry): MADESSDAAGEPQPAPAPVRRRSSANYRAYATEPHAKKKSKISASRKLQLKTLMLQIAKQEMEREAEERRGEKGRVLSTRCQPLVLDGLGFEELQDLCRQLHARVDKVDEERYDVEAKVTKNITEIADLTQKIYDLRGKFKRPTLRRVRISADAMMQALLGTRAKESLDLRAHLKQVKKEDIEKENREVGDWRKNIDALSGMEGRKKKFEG

B1: rat cardiac troponin T (natural protein)
chain: not shown
notes: cardiac troponin T, rat, cloned from a rat heart cDNA library into pET3a, codon-optimized; also called rat cTnT; rcTnT; source: E. coli BL21(DE3)-RIPL, soluble fraction, purified (ion exchange, similar method to rcTnI)
stoichiometry N (rat cardiac troponin C): 1
stoichiometry N (rat cardiac troponin I): 1
